Measurements published in paper PMC3177148 (Molecular microbiology, 2011).

T1: MacB with C-terminal 6His tag, purified and reconstituted into proteoliposomes (E. coli, UniProt P75831 1-648)
T1 sequence: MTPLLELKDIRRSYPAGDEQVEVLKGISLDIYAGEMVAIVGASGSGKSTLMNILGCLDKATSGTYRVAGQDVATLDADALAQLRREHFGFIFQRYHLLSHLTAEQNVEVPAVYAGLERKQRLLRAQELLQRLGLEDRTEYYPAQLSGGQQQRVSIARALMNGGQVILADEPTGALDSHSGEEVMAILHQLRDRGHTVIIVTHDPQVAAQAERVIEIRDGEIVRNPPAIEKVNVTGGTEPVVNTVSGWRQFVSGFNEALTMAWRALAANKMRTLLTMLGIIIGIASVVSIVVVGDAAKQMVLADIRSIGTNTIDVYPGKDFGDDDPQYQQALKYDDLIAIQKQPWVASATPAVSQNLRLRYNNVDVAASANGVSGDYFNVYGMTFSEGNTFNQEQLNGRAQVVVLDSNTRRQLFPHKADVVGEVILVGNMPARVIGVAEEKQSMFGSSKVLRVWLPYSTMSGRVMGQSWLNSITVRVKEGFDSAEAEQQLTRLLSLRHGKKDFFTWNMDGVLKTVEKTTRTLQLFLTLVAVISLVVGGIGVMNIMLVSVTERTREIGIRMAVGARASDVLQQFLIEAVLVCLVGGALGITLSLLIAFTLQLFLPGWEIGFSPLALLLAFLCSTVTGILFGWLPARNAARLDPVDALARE


Columns and labels:
MacB = MacB (Escherichia coli, UniProt P75831); experiment: limited proteolysis protection; type: binding; details: 1 mM Mg-AMPPNP, loaded on ice, proteolysis at 37°C
[1] = target: T1, MacB with C-terminal 6His tag, purified …; experiment: limited proteolysis of proteoliposomes
cross-linking = target: the molecule itself; experiment: cross-linking

Molecule | limited proteolysis protection (proteinase K) in proteoliposomes, anti-MacB immu (MacB) | binding result [1] | binding result (cross-linking)
Nc1ncnc2c1ncn2[C@@H]1O[C@H](COP(=O)(O)OP(=O)(O)NP(=O)(O)O)[C@@H](O)[C@H]1O [AMPPNP] | MacB alone binds ATP and AMPPNP | – | –
MacA wild type with C-terminal 6His tag, purified (natural protein) MKKRKTVKKRYVIALVIVIAGLITLWRILNAPVPTYQTLIVRPGDLQQSVLATGKLDALRKVDVGAQVSGQLKTLSVAIGDKVKKDQLLGVIDPEQAENQIKEVEATLMELRAQRQQAEAELKLARVTYSRQQRLAQTKAVSQQDLDTAATEMAVKQAQIGTIDAQIKRNQASLDTAKTNLDYTRIVAPMAGEVTQITTLQGQTVIAAQQAPNILTLADMSAMLVKAQVSEADVIHLKPGQKAWFTVLGDPLTRYEGQIKDVLPTPEKVNDAIFYYARFEVPNPNGLLRLDMTAQVHIQLTDVKNVLTIPLSALGDPVGDNRYKVKLLRNGETREREVTIGARNDTDVEIVKGLEAGDEVVIGEAKPGAAQ | – | binds | binds
MacA G357A with C-terminal 6His tag, purified (natural protein) MKKRKTVKKRYVIALVIVIAGLITLWRILNAPVPTYQTLIVRPGDLQQSVLATGKLDALRKVDVGAQVSGQLKTLSVAIGDKVKKDQLLGVIDPEQAENQIKEVEATLMELRAQRQQAEAELKLARVTYSRQQRLAQTKAVSQQDLDTAATEMAVKQAQIGTIDAQIKRNQASLDTAKTNLDYTRIVAPMAGEVTQITTLQGQTVIAAQQAPNILTLADMSAMLVKAQVSEADVIHLKPGQKAWFTVLGDPLTRYEGQIKDVLPTPEKVNDAIFYYARFEVPNPNGLLRLDMTAQVHIQLTDVKNVLTIPLSALGDPVGDNRYKVKLLRNGETREREVTIGARNDTDVEIVKGLEAADEVVIGEAKPGAAQ | – | – | binds
MacA G353A with C-terminal 6His tag, purified (natural protein) MKKRKTVKKRYVIALVIVIAGLITLWRILNAPVPTYQTLIVRPGDLQQSVLATGKLDALRKVDVGAQVSGQLKTLSVAIGDKVKKDQLLGVIDPEQAENQIKEVEATLMELRAQRQQAEAELKLARVTYSRQQRLAQTKAVSQQDLDTAATEMAVKQAQIGTIDAQIKRNQASLDTAKTNLDYTRIVAPMAGEVTQITTLQGQTVIAAQQAPNILTLADMSAMLVKAQVSEADVIHLKPGQKAWFTVLGDPLTRYEGQIKDVLPTPEKVNDAIFYYARFEVPNPNGLLRLDMTAQVHIQLTDVKNVLTIPLSALGDPVGDNRYKVKLLRNGETREREVTIGARNDTDVEIVKALEAGDEVVIGEAKPGAAQ | – | – | binds
